Data from US20250326814A1, “MODIFIED OXYNTOMODULIN AND METHODS OF USE THEREOF” (OPKO BIOLOGICS LTD., priority 2024, published 2025).

Legend:
glucagon receptor (GCGR) = experiment: cell-based or functional assay
[1] = target: glucagon-like peptide-1 receptor (GLP-1R); experiment: cell-based or functional assay

Substance	% EC50 compare to KPI (GCGR), with HSA added (KPI + HSA) (glucagon receptor (GCGR))	EC50 (nM) GCGR, glucagon activity in vitro (glucagon receptor (GCGR))	EC50 [nM] GCGR, CBA potency assay (glucagon receptor (GCGR))	EC50 [nM] GCGR, CBA potency assay, with HSA added (KPI + HSA) (glucagon receptor (GCGR))	EC50 [nM] GCGR, CBA potency assay, without HSA (glucagon receptor (GCGR))	% EC50 compare to KPI (GLP1), with HSA added (KPI + HSA) [1]	EC50 (nM) GLP-1R, GLP-1 activity in vitro [1]	EC50 (nM), GLP-1 activity [1]	EC50 [nM] GLP1, CBA potency assay [1]	EC50 [nM] GLP1, CBA potency assay, with HSA added (KPI + HSA) [1]	EC50 [nM] GLP1, CBA potency assay, without HSA [1]
OPK-88003 KPI (SEQ ID NO: 3 where Xaa38=Cys and Xaa39=Cys) (peptide)	129%	0.0731 nM	0.6 nM	1.06 nM	1.37 nM	107%	0.0168 nM	0.105 nM	0.127 nM	0.187 nM	0.201 nM
Tirzepatide (Mounjaro, Zepbound) (peptide)								0.9 nM			
